Target: 基因重组表达的CD33胞外区 (recombinant CD33 extracellular domain) (human) (UniProt P20138)
Assay: phage ELISA, CD33-ECD coated, HRP/anti-M13 detection

UniProt P20138, sequence (P20138 18-259): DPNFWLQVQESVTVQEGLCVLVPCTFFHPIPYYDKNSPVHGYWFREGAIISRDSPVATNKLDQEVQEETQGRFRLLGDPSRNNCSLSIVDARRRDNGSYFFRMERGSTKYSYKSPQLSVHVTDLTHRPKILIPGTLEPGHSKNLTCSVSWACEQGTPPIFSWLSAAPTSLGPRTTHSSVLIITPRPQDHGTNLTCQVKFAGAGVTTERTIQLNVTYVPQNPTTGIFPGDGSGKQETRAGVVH

B1: 噬菌体展示的单链抗体ZJL101 (phage-displayed scFv ZJL101; phage clones No. 3 and No. 4, identical inserts) (scFv, not shown: large carriers)
scFv: MAQVQLVQSGTVVKKPGSSVKVSCKTSGGTLPNHAINWVRQASGQGLEWMGWMSPNTGDTGYARKFQGRVTMTRDTSISTAYMELSSLRSDDTAIYYCATGDPRVGHSWGQGTLVTVSSGGGGSGGGGSGGGGSDIQMTQSPPSLSASVGDRVTITCRASQTIGSHLNWYQQKPGKAPKLLITGASSLQSGVPARFTGSGFGTDFTLTISSLQVEDLATYSCQQTYNTPRTFGQGTKVEIK
B1 was tested, and the OD450nm was 1.6 OD450nm.
